Results: patent US7422862B2, “Methods for identifying modulators of apoptosis” (The Burnham Institute, priority 2001, dated 2008)

Tests used:
RFP-Bax = target: T1, RFP-Bax (Homo sapiens, UniProt Q07812); assay: Cellular co-localization in Cos-7 cells (confocal microscope); format: cell-based
T1 construct: expressed in transfected cells; host or cells: Cos-7
Text: GFP-HN and a Red Fluorecence Protein (RFP) vector, RFP-Bax, were transfected into Cos-7 cells. The intracellular localization of the expressed polypeptides was examined using a confocal microscope. […] GFP-HN localized to punctate intracellular membranes and when GFP-HN and RFP-Bax were co-expressed, the two polypeptides co-localized to intracellular membranes (data not shown).

HCT116 parental cells = assay: STS-induced apoptosis in HCT116 parental cells; format: cell-based, human
Bak = target: T2, Bak (Homo sapiens, UniProt Q16611); assay: Bak-induced apoptosis in transfected cells; format: cell-based; design: expressed in transfected cells; conditions: CSM14.1 or PC-3 cells, transient co-transfection
T2 sequence (Q16611 1-211): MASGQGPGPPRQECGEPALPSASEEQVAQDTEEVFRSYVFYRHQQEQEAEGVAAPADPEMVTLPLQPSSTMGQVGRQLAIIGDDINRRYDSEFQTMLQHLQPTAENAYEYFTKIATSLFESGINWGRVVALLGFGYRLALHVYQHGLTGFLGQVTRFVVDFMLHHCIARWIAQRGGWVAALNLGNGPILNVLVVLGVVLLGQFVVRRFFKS
Experimental: (A-D) CMS14.1 neuronal cells were transfected with plasmids encoding Flag-HN peptide or Flag-control (27-amino-acid) peptide, together with GFP-encoding plasmid at 4:1 ratio. Cells were either cultured without further treatment (open bars) or subjected to various apoptotic stimuli for various times (dark bars), including (A) STS for 8 h (dark symbols=Flag-control; open symbols=Flag-HN), (B) Serum-deprivation for 72 h, (C) 10 joules/m2 Uvirradiation followed by 24 h culture, and (D) 50 ng/ml TNFa in […] for 24 h. Cells were then fixed and stained with DAPI to determine the percentage of apoptotic cells, evaluating=200 GFP-positive cells per sample (mean±SD; n=3). (inset) Lysates prepared from replicate cultures of transfected cells were normalized for total protein content and analyzed by immunoblotting using anti-Flag (top) and anti-tubulin (bottom) antibodies, confirming production of similar amounts of Flag-control and Flag-HN peptides. […] (Upper panel) After 72 hr, cell lysates were prepared and 100 ug was analyzed by immunoblotting using anti-HN and anti-tubulin (as a loading control) antibodies. (Lower panel) At 72 hr after siRNA transfection, SF268 cells were cultured with 0.1 μM STS for 8 hrs, then % apoptosis was determined (mean+std dev; n=3). […] Apoptosis (%) was measured 48 hrs later among GFP-positive cells. […]

Bax (S184K) = target: T3, Bax (S184K) (Mus musculus, UniProt Q07813, S184K); assay: Yeast two-hybrid assay; format: binding; conditions: EGY48 cells, pGilda-Bax (S184K) and pYESTrp-Humanin
T3 construct: expressed in transfected cells; host or cells: S. cerevisiae EGY48
T3 sequence (Q07813 whole entry S184K): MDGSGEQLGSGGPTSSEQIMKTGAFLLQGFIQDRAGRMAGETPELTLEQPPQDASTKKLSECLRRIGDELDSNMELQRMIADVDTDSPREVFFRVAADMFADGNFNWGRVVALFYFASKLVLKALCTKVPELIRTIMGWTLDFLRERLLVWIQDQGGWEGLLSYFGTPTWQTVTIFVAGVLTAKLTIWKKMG
Text: A yeast two-hybrid system is designed to screen a cDNA library for a gene encoding a polypeptide that interacts with a known target (bait) polypeptide (Golemis, et al., In Current Protocols in Molecular Biology, John Wiley & Sons, Inc., Ch.20.0 and 20.1.(1996); Mendelsohn and Brent, Current Opinion in Biotechnology 5:482-486 (1994)). In this experiment, a S184K (a serine at position 184 in the transmembrane domain mutated to a lysine) mutant of mouse Bax was used as a bait, since the wild type Bax induces cell death in yeast.
Bax (S184K) cDNA was constructed in a pgilda yeast expression vector at EcoRV Xhol sites, producing a LexA-Bax fusion polypeptide. The prokaryotic LexA polypeptide, which functions as the DNA binding domain and binds to LexA operators, was used. A human adult testes cDNA library in a pYESTrp vector was purchased from Invitrogen. This library contains library cDNA fused with a B42 transcription activation domain (an 88-residue acidic E. coli peptide). The pGilda-Bax (S184K) and cDNA library plasmids were co-transfected into EGY48 yeast cells together with a reporter plasmid pSH18-34. The transformants were cultured on leucine-deficient galactose-containing media, which induces gene expression through the GAL1 promoter located within both the pGilda and pYESTrp vectors. […]

T1 sequence (Q07812 whole entry): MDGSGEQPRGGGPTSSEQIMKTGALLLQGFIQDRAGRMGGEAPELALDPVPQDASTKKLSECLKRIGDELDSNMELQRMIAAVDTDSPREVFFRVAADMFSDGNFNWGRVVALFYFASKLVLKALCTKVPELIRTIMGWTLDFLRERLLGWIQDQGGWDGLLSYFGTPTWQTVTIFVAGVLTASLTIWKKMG

Row | Substance | co-localization with RFP-Bax (RFP-Bax) | reduction of percentage of cells undergoing STS-induced apoptosis (HCT116 parental cells) | Bak-induced apoptosis (Bak) | yeast growth on Leu-deficient media (two-hybrid interaction) (Bax (S184K))
1 | GFP-HN: Wild-type full-length Humanin fused to Green Fluorescent Protein | co-localized | about half | not affected | 
2 | Humanin: 24 amino acid polypeptide, cytosolic form of human Humanin (SEQ ID NO:2); used as synthetic peptide or expressed fusion |  |  |  | grew on Leu-media
